Patent US20260021119A1, “TETRACYCLINE DERIVATIVES” (ICM (INSTITUT DU CERVEAU ET DE LA MOELLE ÉPINIÈRE), priority 2022, published 2026)

System: p-tau (phosphorylated tau protein at Ser202, Thr205 residues)
Experiment: p-tau (AT8) expression in cultured cortical neurons under oxidative stress
Type: cell-based, mouse
Design: key to Reduction of the % of p-tau+ somas: a favorable response, synonymous with a decrease in the number of p-tau+ cell bodies; ++: a favorable response, synonymous with a decrease in the number of p-tau+ cell bodies; +++=reference level; an unfavorable response is represented by a sign “−”, synonymous with an elevation of the number of p-tau+ cell bodies
Details: compounds 3 μM, APO 100 μg/mL; mouse cortical cultures exposed div 7-11 to DF12i
Method: A culture model of cortical neurons from mouse embryonic brain was used, in which neuronal cells were subjected to a maturation step until day in vitro (div) 7, before being gradually exposed to phenol red formulated DMEM/Nutrient mixture F12 Ham supplemented with 20 μg/mL of insulin, and 2 μM of the NMDA receptor blocker MK-801 (DF12i).
Precisely, after 4 days of exposure to DF12i, between 10-15% of surviving neurons show a very strong AT8 immunosignal in their somas while only 1 to 1.5% of neuronal cell bodies are found immunopositive under conditions where oxidative stress is repressed by treatment with bovine apotransferrin (APO; 100 µg/mL, Sigma Aldrich), a glycoprotein with iron chelating properties. Likewise, overexpression of p-tau in cortical cell bodies is reduced by the two non-antibiotic tetracyclines compound of formula (C) ([…]) and compound of formula (Ib) ([…]): see the following Table: […]

B1: apotransferrin (protein, UniProt Q29443 20-704, looked up)
Serotransferrin: DPERTVRWCTISTHEANKCASFRENVLRILESGPFVSCVKKTSHMDCIKAISNNEADAVTLDGGLVYEAGLKPNNLKPVVAEFHGTKDNPQTHYYAVAVVKKDTDFKLNELRGKKSCHTGLGRSAGWNIPMAKLYKELPDPQESIQRAAANFFSASCVPCADQSSFPKLCQLCAGKGTDKCACSNHEPYFGYSGAFKCLMEGAGDVAFVKHSTVFDNLPNPEDRKNYELLCGDNTRKSVDDYQECYLAMVPSHAVVARTVGGKEDVIWELLNHAQEHFGKDKPDNFQLFQSPHGKDLLFKDSADGFLKIPSKMDFELYLGYEYVTALQNLRESKPPDSSKDECMVKWCAIGHQERTKCDRWSGFSGGAIECETAENTEECIAKIMKGEADAMSLDGGYLYIAGKCGLVPVLAENYKTEGESCKNTPEKGYLAVAVVKTSDANINWNNLKDKKSCHTAVDRTAGWNIPMGLLYSKINNCKFDEFFSAGCAPGSPRNSSLCALCIGSEKGTGKECVPNSNERYYGYTGAFRCLVEKGDVAFVKDQTVIQNTDGNNNEAWAKNLKKENFEVLCKDGTRKPVTDAENCHLARGPNHAVVSRKDKATCVEKILNKQQDDFGKSVTDCTSNFCLFQSNSKDLLFRDDTKCLASIAKKTYDSYLGDDYVRAMTNLRQCSTSKLLEACTFHKP
modifications: iron-free apo form
  Reduction of the % of p-tau+ somas: +++
